Results from patent US20230303674A1 (BETH ISRAEL DEACONESS MEDICAL CENTER, published 2023).
Ends that are not written are not given here.

Columns and labels:
antibody G1 Fab fragment [1] = test: Biacore competition: G1 Fab (50 nM) pre-incubated with competing peptide, flowed over human α-CGRP on SA chip
Source text: (§1) Y axis represents percentage of binding blocked by the presence of the competing peptide compared with the binding in the absence of the competing peptide.
(§2) All these peptides are amidated at the C-terminus.

antibody G1 Fab fragment [2] = test: Biacore competition: G1 Fab (50 nM) pre-incubated 1 h with 10 µM competing peptide, flowed over N-biotinylated human α-CGRP on SA chip
Source text: as §1, §2

antibody G1 Fab fragment [3] = test: Biacore, 50 nM G1 Fab with 10 µM peptide, over human α-CGRP on chip
Source text: as §1, §2

Chain of antibody G1 Fab fragment (VH, as listed by the source, chain 1 of 2): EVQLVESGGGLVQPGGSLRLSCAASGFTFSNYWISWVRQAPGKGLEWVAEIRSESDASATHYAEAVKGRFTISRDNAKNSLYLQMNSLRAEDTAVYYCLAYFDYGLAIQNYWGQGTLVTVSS
Chain of antibody G1 Fab fragment (VL, as listed by the source, chain 2 of 2): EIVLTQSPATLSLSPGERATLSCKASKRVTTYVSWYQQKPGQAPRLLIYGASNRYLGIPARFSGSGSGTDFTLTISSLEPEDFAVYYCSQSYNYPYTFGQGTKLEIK

| binding result (antibody G1 Fab fragment [1]) | % Binding Blocked (antibody G1 Fab fragment [2]) [%] | % of binding blocked (antibody G1 Fab fragment [3]) [%] | Binder |
| --- | --- | --- | --- |
| no binding (tested: 10 µM) | – | – | ACDTATCVTHRLA-OH (ends and bridges not checked, not amidated) [human α-CGRP 1-13-COOH] |
| – | 83.3 | – | SGGVVKNNFVPTNVGSKAF-OH (free C-terminal carboxyl, not amidated; also called 19-37 (not amidated at the C-terminus)) [human α-CGRP 19-37-COOH] |
| no binding (tested: 10 µM) | – | – | ACDTATCVTHRLAGLLSRS-OH (ends and bridges not checked, not amidated) [human α-CGRP 1-19-COOH] |
| – | 40.6 | ~40 | ACDTATCVTHRLAGLLSRSGGVVKNNFVPTNVGSKA-OH (ends and bridges not checked, free C-terminal carboxyl, not amidated; also called 1-36 (not amidated at the C-terminus)) [human α-CGRP 1-36-COOH] |
